Values of other authors as cited in US11474093B2, “Analysis method of protein-protein interaction and a screening method of protein-protein interaction inhibitors using a nanopore” (Korea Research Institute of Bioscience and Biotechnology, priority 2016, dated 2022).
Read-outs that look alike come from different tables or passages of the source.

Molecular target: MDM2 (Homo sapiens, UniProt Q00987)
Sequence (Q00987 whole entry): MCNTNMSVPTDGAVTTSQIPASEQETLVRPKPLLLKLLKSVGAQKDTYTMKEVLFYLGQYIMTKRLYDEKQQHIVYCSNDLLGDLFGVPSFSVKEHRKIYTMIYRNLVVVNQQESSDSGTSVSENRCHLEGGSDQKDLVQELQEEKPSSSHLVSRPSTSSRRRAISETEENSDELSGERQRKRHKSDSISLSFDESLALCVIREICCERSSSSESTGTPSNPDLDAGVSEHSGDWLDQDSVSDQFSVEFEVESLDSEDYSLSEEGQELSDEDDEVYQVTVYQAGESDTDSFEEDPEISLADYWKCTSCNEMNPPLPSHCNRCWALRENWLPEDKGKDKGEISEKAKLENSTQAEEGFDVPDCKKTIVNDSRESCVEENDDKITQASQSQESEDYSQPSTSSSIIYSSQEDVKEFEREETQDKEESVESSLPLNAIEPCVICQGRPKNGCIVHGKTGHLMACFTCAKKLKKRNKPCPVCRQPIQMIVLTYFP

Kd (read-out: Kd of the interaction between MDM2 and p53TAD): 600 nM | Kd (read-out: dissociation coefficient (Kd) with MDM2): ~600 nM
Substance: p53TAD: residues 1 to 73 of p53 transactivation domain (TAD)
